One molecule from publication PMC3040172, “The Impact of the C-Terminal Domain on the Interaction of Human DNA Topoisomerase II α and β with DNA” can be followed below.

Settings in all cases: protein: recombinant; chain copies: 2; blunt; as printed S2 is not the exact complement of S1: 2 mismatches at S1 positions 34-35 (possible typo)
For series [1], the target named is T1, DNA topoisomerase II alpha, full length (human, UniProt P11388 1-1531). The series can be described thus: fluorescence anisotropy; 50 mM Tris pH 8, 5% glycerol, 50 mM KCl, 1% Triton X-100, 100 µg/ml acetylated BSA, 20°C; HEX oligo printed as 1 µM; 10 mM MgCl2 or CaCl2 where described. (In general: Fluorescence polarisation rises when a labelled molecule tumbles more slowly, as on binding a larger partner.)
T1 sequence (P11388 whole entry): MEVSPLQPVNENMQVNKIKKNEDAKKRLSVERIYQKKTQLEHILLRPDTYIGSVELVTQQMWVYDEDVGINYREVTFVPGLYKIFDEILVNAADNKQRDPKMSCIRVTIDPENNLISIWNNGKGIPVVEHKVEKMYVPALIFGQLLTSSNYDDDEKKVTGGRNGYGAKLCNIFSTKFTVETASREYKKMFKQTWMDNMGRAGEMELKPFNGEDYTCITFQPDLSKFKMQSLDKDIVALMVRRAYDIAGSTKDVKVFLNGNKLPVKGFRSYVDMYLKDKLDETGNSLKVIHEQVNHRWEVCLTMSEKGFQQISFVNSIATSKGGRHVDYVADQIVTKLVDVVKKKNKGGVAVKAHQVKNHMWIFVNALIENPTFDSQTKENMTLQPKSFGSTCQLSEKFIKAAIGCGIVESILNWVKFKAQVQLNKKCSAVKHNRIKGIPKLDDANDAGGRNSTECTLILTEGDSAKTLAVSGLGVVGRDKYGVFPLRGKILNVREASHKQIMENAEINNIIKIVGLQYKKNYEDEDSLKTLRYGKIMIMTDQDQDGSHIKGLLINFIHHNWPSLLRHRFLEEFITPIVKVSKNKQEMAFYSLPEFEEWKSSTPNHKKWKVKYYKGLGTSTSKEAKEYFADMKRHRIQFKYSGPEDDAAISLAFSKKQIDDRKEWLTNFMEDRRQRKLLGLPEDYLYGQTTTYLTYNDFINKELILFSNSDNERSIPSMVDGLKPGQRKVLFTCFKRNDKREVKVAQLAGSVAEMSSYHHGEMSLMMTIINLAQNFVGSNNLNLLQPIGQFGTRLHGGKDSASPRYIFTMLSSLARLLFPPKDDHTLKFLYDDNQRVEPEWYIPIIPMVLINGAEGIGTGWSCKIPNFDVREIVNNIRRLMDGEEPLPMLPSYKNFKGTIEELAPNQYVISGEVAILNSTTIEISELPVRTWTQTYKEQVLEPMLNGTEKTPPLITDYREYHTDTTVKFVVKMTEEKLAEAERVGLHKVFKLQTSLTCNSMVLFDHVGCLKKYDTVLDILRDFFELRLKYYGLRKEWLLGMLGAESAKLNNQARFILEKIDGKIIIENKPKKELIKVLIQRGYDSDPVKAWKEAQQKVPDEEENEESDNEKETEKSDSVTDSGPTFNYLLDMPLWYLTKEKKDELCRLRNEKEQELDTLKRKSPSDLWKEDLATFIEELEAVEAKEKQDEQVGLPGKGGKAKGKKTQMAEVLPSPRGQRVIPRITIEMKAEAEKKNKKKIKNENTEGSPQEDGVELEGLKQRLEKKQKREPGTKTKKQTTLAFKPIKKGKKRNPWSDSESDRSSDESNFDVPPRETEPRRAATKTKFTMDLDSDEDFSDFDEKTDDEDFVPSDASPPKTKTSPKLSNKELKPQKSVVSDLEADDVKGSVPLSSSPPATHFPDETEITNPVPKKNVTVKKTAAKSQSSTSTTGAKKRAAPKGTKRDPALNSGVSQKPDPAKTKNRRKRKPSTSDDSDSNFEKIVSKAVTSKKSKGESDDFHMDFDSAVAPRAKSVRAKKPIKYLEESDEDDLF

Series [2] has as its target Truncated topoisomerase II alpha (C-terminal domain deleted) (human, UniProt P11388 29-1242). The description is as above.
The target in series [3] is T2, DNA topoisomerase II beta, full length (human, UniProt Q02880 1-1626). The description is as above.
T2 sequence (Q02880 whole entry, the tested form may be a part): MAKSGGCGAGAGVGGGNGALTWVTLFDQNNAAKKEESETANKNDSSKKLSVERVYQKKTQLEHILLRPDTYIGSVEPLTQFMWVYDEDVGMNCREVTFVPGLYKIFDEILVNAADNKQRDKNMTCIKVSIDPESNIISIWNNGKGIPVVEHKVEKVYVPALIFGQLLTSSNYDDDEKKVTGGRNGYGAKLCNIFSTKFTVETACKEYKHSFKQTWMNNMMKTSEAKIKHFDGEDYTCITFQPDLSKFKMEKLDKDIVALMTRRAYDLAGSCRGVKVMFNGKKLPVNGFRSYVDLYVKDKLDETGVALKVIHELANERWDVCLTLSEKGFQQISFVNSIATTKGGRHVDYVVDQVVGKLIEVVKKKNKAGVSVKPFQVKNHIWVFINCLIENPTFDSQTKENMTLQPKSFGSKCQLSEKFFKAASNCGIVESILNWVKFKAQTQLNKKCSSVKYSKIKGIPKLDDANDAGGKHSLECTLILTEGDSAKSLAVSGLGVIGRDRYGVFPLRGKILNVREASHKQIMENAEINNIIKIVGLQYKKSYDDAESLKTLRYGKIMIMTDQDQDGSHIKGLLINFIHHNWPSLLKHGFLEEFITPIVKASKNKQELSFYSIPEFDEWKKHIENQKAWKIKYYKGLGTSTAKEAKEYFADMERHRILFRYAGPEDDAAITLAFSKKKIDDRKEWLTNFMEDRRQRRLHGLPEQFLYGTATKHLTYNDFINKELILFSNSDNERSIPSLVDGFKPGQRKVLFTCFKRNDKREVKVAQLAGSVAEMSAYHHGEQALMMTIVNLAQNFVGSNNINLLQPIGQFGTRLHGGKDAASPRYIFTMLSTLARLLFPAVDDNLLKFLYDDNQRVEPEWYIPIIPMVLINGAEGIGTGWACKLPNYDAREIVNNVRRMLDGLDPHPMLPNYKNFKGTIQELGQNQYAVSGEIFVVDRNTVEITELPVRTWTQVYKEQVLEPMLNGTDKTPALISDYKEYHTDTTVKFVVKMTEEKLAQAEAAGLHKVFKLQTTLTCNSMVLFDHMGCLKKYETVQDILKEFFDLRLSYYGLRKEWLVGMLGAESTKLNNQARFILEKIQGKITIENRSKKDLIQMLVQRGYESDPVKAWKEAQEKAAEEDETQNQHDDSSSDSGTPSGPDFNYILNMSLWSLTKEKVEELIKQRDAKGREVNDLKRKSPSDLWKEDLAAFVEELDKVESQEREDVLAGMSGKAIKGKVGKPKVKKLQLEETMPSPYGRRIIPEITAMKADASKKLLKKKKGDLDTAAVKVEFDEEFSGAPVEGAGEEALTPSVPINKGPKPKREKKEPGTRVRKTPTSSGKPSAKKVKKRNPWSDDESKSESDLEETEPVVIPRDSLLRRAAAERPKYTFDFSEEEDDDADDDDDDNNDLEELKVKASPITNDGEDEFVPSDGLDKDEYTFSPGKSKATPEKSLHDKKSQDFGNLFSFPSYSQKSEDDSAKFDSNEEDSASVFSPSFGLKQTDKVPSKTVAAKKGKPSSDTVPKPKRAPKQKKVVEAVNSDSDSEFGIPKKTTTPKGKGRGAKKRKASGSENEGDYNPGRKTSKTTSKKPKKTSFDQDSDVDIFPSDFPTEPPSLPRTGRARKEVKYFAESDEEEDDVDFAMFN
Series [4] concerns the target Truncated topoisomerase II beta (C-terminal domain deleted) (human, UniProt Q02880 51-1268). Described as above.
Series [5] addresses T1, DNA topoisomerase II alpha, full length. The series can be described thus: fluorescence anisotropy; 10 mM CaCl2; 50 mM Tris pH 8, 5% glycerol, 50 mM KCl, 1% Triton X-100, 100 µg/ml acetylated BSA, 20°C; HEX oligo printed as 1 µM; 10 mM MgCl2 or CaCl2 where described.
For series [6], the target named is T2, DNA topoisomerase II beta, full length. The series is described as above.
Series [7] addresses T1, DNA topoisomerase II alpha, full length. Kind of series: fluorescence anisotropy; no metal; 50 mM Tris pH 8, 5% glycerol, 50 mM KCl, 1% Triton X-100, 100 µg/ml acetylated BSA, 20°C; HEX oligo printed as 1 µM; 10 mM MgCl2 or CaCl2 where described.
Series [8] deals with T2, DNA topoisomerase II beta, full length. The series is described as above.
Series [9] deals with T1, DNA topoisomerase II alpha, full length. The series can be described thus: fluorescence anisotropy; 10 mM MgCl2; 50 mM Tris pH 8, 5% glycerol, 50 mM KCl, 1% Triton X-100, 100 µg/ml acetylated BSA, 20°C; HEX oligo printed as 1 µM; 10 mM MgCl2 or CaCl2 where described.
Series [10] has as its target T2, DNA topoisomerase II beta, full length. The description is as above.

Sequence of Truncated topoisomerase II beta (C-terminal domain deleted) (Q02880 51-1268, stated change not applied): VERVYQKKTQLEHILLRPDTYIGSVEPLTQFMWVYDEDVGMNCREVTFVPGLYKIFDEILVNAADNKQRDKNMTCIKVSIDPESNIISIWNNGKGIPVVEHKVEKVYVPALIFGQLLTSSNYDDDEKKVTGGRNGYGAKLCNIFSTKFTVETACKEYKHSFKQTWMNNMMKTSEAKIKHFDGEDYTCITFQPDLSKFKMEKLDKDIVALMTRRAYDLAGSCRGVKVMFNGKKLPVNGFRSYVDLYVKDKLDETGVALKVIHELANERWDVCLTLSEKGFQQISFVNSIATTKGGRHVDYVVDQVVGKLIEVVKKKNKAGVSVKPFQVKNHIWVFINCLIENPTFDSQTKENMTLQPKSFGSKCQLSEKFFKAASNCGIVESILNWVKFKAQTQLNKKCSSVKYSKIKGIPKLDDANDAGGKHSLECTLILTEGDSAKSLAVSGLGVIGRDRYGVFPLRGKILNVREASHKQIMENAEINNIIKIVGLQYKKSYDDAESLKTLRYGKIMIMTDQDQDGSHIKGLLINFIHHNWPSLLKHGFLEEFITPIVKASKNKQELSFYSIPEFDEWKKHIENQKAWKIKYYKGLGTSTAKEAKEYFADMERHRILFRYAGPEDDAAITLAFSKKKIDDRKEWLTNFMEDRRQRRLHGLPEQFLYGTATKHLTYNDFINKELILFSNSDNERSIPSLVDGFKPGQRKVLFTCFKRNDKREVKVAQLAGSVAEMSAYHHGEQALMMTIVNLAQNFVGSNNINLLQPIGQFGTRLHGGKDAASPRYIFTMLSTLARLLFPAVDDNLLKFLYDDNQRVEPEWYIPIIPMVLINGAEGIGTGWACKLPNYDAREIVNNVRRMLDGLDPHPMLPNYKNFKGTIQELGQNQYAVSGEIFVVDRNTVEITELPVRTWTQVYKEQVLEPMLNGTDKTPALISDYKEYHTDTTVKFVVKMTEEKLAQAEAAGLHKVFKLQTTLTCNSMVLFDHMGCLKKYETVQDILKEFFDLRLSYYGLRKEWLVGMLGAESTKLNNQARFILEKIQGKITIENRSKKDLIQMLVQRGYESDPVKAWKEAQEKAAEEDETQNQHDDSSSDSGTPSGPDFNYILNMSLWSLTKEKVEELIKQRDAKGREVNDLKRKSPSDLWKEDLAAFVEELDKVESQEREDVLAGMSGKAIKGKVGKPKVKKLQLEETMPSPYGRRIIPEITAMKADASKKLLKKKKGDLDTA

B1: 40 bp oligo AB (dsDNA)
DNA 1: CGCAATCTGACAATGCGCTCATCGTCATCCTCGCGACGCG
DNA 2: CGCGTGCCGAGGATGACGATGAGCGCATTGTCAGATTGCG
For the molecule B1, the Kd (as a rule, the constant that tells how readily two partners part at equilibrium) in series [1] worked out at 189 nM; in series [2] it was 116 nM; in series [3] it was 72.9 nM; in [4], 17.8 nM; in series [5], 178 nM; in series [6], 84.3 nM. Moreover, the Kd in series [7] was found to be 160 nM; in series [8] it was 46.4 nM; in series [9], 150 nM; in series [10] it was 55.4 nM.
